Test results taken from patent US20260201396, “New LoxPsym Sites for Large-Scale Orthogonal Cre-Mediated Recombination” (VIB VZW, published 2026).

T1: Cre recombinase (Punavirus P1)
T1 chain: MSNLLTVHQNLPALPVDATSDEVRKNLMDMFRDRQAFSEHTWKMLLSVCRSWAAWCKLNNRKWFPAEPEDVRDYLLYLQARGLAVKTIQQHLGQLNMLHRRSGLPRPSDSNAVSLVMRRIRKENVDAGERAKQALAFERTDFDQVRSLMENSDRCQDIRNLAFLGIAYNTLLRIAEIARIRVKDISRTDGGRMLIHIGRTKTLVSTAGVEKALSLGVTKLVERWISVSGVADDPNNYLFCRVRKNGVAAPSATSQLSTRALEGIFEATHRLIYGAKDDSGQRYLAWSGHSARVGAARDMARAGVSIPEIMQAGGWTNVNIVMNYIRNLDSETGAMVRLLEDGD

B1: LoxPsym-TTA (dsDNA)
DNA 1: ATAACTTCGTATATTATATAATATACGAAGTTAT
DNA 2: ATAACTTCGTATATTATATAATATACGAAGTTAT
B2: LoxPsym-TAG (dsDNA)
DNA 1: ATAACTTCGTATATAGTACTATATACGAAGTTAT
DNA 2: ATAACTTCGTATATAGTACTATATACGAAGTTAT
B3: LoxPsym-ACT (dsDNA)
DNA 1: ATAACTTCGTATAACTTAAGTTATACGAAGTTAT
DNA 2: ATAACTTCGTATAACTTAAGTTATACGAAGTTAT
B4: LoxPsym-AAT (dsDNA)
DNA 1: ATAACTTCGTATAAATTAATTTATACGAAGTTAT
DNA 2: ATAACTTCGTATAAATTAATTTATACGAAGTTAT
B5: LoxPsym-TGC (dsDNA)
DNA 1: ATAACTTCGTATATGCTAGCATATACGAAGTTAT
DNA 2: ATAACTTCGTATATGCTAGCATATACGAAGTTAT
B6: LoxPsym-TAC (dsDNA)
DNA 1: ATAACTTCGTATATACTAGTATATACGAAGTTAT
DNA 2: ATAACTTCGTATATACTAGTATATACGAAGTTAT
B7: LoxPsym-CCG (dsDNA)
DNA 1: ATAACTTCGTATACCGTACGGTATACGAAGTTAT
DNA 2: ATAACTTCGTATACCGTACGGTATACGAAGTTAT
B8: LoxPsym-CAT (dsDNA)
DNA 1: ATAACTTCGTATACATTAATGTATACGAAGTTAT
DNA 2: ATAACTTCGTATACATTAATGTATACGAAGTTAT
B9: LoxPsym-GCG (dsDNA)
DNA 1: ATAACTTCGTATAGCGTACGCTATACGAAGTTAT
DNA 2: ATAACTTCGTATAGCGTACGCTATACGAAGTTAT
B10: LoxPsym-CAG (dsDNA)
DNA 1: ATAACTTCGTATACAGTACTGTATACGAAGTTAT
DNA 2: ATAACTTCGTATACAGTACTGTATACGAAGTTAT
B11: LoxPsym-TCC (dsDNA)
DNA 1: ATAACTTCGTATATCCTAGGATATACGAAGTTAT
DNA 2: ATAACTTCGTATATCCTAGGATATACGAAGTTAT
B12: LoxPsym-GAT (dsDNA)
DNA 1: ATAACTTCGTATAGATTAATCTATACGAAGTTAT
DNA 2: ATAACTTCGTATAGATTAATCTATACGAAGTTAT
B13: LoxPsym-TTG (dsDNA)
DNA 1: ATAACTTCGTATATTGTACAATATACGAAGTTAT
DNA 2: ATAACTTCGTATATTGTACAATATACGAAGTTAT
B14: LoxPsym-CGG (dsDNA)
DNA 1: ATAACTTCGTATACGGTACCGTATACGAAGTTAT
DNA 2: ATAACTTCGTATACGGTACCGTATACGAAGTTAT
B15: LoxPsym-TGT (dsDNA)
DNA 1: ATAACTTCGTATATGTTAACATATACGAAGTTAT
DNA 2: ATAACTTCGTATATGTTAACATATACGAAGTTAT
B16: LoxPsym-TAT (dsDNA)
DNA 1: ATAACTTCGTATATATTAATATATACGAAGTTAT
DNA 2: ATAACTTCGTATATATTAATATATACGAAGTTAT
B17: LoxPsym-GGA (dsDNA)
DNA 1: ATAACTTCGTATAGGATATCCTATACGAAGTTAT
DNA 2: ATAACTTCGTATAGGATATCCTATACGAAGTTAT
B18: LoxPsym-GCT (dsDNA)
DNA 1: ATAACTTCGTATAGCTTAAGCTATACGAAGTTAT
DNA 2: ATAACTTCGTATAGCTTAAGCTATACGAAGTTAT
B19: LoxPsym-GGT (dsDNA)
DNA 1: ATAACTTCGTATAGGTTAACCTATACGAAGTTAT
DNA 2: ATAACTTCGTATAGGTTAACCTATACGAAGTTAT

Target: T1, Cre recombinase
Experiment: cell_activity; as above
From the text: Similar to the development of the original LoxPsym site by Hoess et al. (1986 J Cell Biochem), we edited the spacer of the LoxP site to obtain new non-directional recombination sites. In doing so, we focused on altering the first three nucleotides of the spacer (FIG. 2), as it was shown before that changing the nucleotides at position 4 and 5 of the spacer (T and A respectively) prevents recombination (Hoess et al 1986). The last three nucleotides were adapted accordingly to ensure the spacer remained palindromic. As such, we were able to design maximally 63 new potential LoxPsym sites. To test if the Cre enzyme was still able to recombine the new LoxPsym variants, we conducted a fluorescent-based assay in yeast via genomic integration of a fluorescence cassette which was flanked by identical LoxPsym variants at both sites (FIGS. 3A and 3C). Recombination of functional LoxPsym variants enables the deletion of the fluorescence cassette. The fraction of non-fluorescent cells in the population after induction of Cre-mediated recombination, was used to determine the recombination efficiency of the new LoxPsym sites. To verify if this set-up is valid for estimation of the recombination efficiency, the dual-fluorescent-reporter system shown in FIG. 3A was used to assess the frequency of inversion/deletion over time. […] Recombination efficiencies largely altered between different LoxPsym variants (Table 1). 63 new LoxPsym variants were obtained with altering recombination efficiencies ranging from 13% to 89%.

| Binder | activity |
| --- | --- |
| B1 | 35.8% |
| B2 | 70.3% |
| B3 | 70.5% |
| B4 | 71.1% |
| B5 | 72% |
| B6 | 75.3% |
| B7 | 76% |
| B8 | 79.1% |
| B9 | 79.2% |
| B10 | 79.9% |
| B11 | 80% |
| B12 | 36.9% |
| B13 | 80.6% |
| B14 | 81.5% |
| B15 | 82.4% |
| B16 | 89.3% |
| B17 | 37.1% |
| B18 | 37.2% |
| B19 | 38% |
